Columns and labels:
[1] = system: Cc1cc2nc3c(=O)[nH]c(=O)nc-3n(C[C@H](O)[C@H](O)[C@H](O)COP(=O)(O)OP(=O)(O)OC[C@H]3O[C@@H](n4cnc5c(N)ncnc54)[C@H](O)[C@@H]3O)c2cc1C; assay: purified protein; type: biochemical, Streptococcus pneumoniae; settings: 200 µM NADPH; cytochrome c 100 µM; Figure 3E; varied: cofactor
[2] = system: NC(=O)C1=CN([C@@H]2O[C@H](COP(=O)(O)OP(=O)(O)OC[C@H]3O[C@@H](n4cnc5c(N)ncnc54)[C@H](OP(=O)(O)O)[C@@H]3O)[C@@H](O)[C@H]2O)C=CC1; assay: purified protein; type: biochemical, Streptococcus pneumoniae; settings: 10 µM FAD; cytochrome c 100 µM; Figure 3D
SpNOX = target: T1, SpNOX (Streptococcus pneumoniae, UniProt Q8CZ28); assay: cytochrome c reduction, absorbance at […] nm; type: biochemical; settings: read-out: 50% inhibitory concentration
T1 construct: gene spr0531; full-length membrane protein, codon-optimized synthetic gene, N-terminal His tag (pQLink N), E. coli BL21(DE3) pLysS, purified in MNG detergent; bis-His heme ligands H69, H83, H129, H142
T1 sequence (Q8CZ28 1-400): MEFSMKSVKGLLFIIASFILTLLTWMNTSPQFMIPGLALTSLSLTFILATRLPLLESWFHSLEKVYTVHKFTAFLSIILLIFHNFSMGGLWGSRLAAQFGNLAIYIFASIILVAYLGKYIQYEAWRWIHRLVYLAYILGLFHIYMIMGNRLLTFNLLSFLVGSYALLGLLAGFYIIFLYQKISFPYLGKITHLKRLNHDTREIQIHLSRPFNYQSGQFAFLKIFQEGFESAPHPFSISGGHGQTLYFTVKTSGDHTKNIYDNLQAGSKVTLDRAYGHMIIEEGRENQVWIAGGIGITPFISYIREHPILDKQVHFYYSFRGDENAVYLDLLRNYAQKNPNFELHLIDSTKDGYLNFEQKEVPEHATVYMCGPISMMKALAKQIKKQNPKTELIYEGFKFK

SpNOX (Streptococcus pneumoniae R6)
Km [1]: 0.13 µM | Km [2]: 8 µM

c1ccc2c(c1)[I+]c1ccccc1-2 [DPI]
IC50 (SpNOX): ~5 µM

Reference: paper PMC5676040, “The NOX Family of Proteins Is Also Present in Bacteria” (mBio, 2017)
